Experimental data reported in patent US20040082080A1, “Method of measuring molecular interactions” (priority 2002, published 2004).

Molecular target: T1, low affinity nerve growth factor receptor, gp75 (Homo sapiens, UniProt P08138)
T1 construct: were expressed endogenously in A875 cells; endogenous in cells; host or cells: A875 cells
Assay: FCS autocorrelation on A875 cells, gp75 receptor stoichiometry
Type: cell-based
Conditions: 180 nM NGF for 5 minutes
Excerpt: Macromolecular stoichiometry, i.e., the quantitative proportions with which two macromolecules interact, of a target can be determined from autocorrelation data. Starting with Equation 4, macromolecular stoichiometry can be calculated if it is assumed that intersystem crossing and particle diffusion are independent sources of fluctuation. The first occurs in the microsecond (μs) time domain and results from intersystem crossing of fluorophores between the singlet and triplet states. The second occurs in the millisecond (ms) time domain, and results from the diffusion of particles into and out of the confocal volume. […]
where F1N′P defines the total number of fast diffusing particles, i.e., uncomplexed fluorescently tagged probes, and F2N′P defines the total number of slow diffusing complexes formed. […] S is obtained with Equation 8 for each target concentration using the parameter values obtained by fitting to Equation 6 and the calibration factor determined with Equation 7
The samples were analyzed using a fluorescence correlation spectroscopy instrument configured to distinct fluorescence emission at different wavelengths and a data processing program capable of autocorrelation, crosscorrelation, Fourier transform and Moment analyses. […]

T1 sequence (P08138 29-427): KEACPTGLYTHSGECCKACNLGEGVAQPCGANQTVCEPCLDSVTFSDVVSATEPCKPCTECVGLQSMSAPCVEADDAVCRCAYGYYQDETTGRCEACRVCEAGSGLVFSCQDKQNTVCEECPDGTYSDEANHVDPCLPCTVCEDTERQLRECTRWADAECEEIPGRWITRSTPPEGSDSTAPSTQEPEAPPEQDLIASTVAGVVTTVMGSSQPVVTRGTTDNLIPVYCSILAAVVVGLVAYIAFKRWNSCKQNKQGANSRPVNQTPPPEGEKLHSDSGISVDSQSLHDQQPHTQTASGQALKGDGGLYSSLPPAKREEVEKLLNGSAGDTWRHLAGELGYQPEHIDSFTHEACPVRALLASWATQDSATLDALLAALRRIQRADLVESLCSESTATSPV

nerve growth factor [NGF] was tested, and the “stoichiometry calculation for gp75 (Equation 8)” value was 0.94.
